For one assay, the target named is T1, MT1−MMPヒンジ領域ペプチドコンジュゲート (mouse, UniProt P02769 25-607 (bovine entry), C-terminal Cys coupled through the linker Sulfo-EMCS to the carrier protein).
T1 construct: peptide 3); also called ペプチド−BSA複合体; 固相化抗原
Put plainly: SPR, peptide 3-BSA complex immobilised, scFv as analyte.

Assay [1] concerns the target T2, 抗MT1−MMP抗体MMPK9I (ハイブリドーマ19Bが産生する抗体IgG).
T2 construct: Mouse IgG from hybridoma 19B; Culture supernatant in the screening; in the flow immunoassay in complex with Cy5-labelled goat anti-mouse IgG F(ab')2; also called 抗体K9I
Put plainly: flow immunoassay: free hinge peptide (0.0-100 ng/mL) inhibits binding of Cy5-F(ab')2-labelled IgG MMPK9I to conjugate-coated polystyrene beads.

T1 sequence (P02769 25-607 limits assumed): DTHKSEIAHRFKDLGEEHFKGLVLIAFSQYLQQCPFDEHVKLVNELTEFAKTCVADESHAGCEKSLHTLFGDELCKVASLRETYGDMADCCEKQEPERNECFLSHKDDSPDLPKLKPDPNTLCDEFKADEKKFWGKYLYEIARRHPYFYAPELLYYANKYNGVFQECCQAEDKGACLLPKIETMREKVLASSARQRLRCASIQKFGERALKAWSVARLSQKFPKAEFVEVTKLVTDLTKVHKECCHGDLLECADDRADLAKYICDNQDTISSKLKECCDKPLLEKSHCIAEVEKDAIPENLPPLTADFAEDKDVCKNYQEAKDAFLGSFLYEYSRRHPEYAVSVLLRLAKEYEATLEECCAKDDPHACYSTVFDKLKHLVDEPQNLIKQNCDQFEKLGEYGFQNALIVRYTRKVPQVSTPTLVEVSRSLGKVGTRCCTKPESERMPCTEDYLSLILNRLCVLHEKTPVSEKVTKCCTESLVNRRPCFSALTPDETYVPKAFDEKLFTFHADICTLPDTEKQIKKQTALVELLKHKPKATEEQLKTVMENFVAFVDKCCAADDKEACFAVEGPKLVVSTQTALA

B1: 単鎖抗体MMPK9E−1 (scFv, V domains shown)
VH: QIQLVQSGPELKKPGETVKISCKASGYTFTSYALHWVKQAPGKGLKWMGWKYTNTGEPTYGDDFKGRFAFSLETSASTAYLQINNLKNEDMATYFCARGGLSSYAMDYWGQGTSVTVSS
VL: DIVMSQSPSSLAVSAGEKVTMSCKSSQSLLNSRTRKNYLAWYQQKPGQSPKLLIYWASTRESGVPDRFTGTGSGTDFTLTISSVQAEDLAVYYCKQSYNLLVTFGAGTKLELKR
In the assay with MT1−MMPヒンジ領域ペプチドコンジュゲート, B1 had an equilibrium dissociation constant (Kd) of roughly 10 nM.

B2: 単鎖抗体MMPK9I−1 (scFv, V domains shown)
VH: QVQLQQSGAELVRPGASVTLSCKASGYRFTDYEMHWVRQTPVHGLEWIGAIDPETGGTAYNQKFKGKATLTEDKSSSTAYMELRSLTSEDSAVYYCTTMITTALDYWGQGTSVTVSS
VL: DVLMTQTPLSLPVSLGDQASISCRSSQSIVHSDGNTYLEWYLQKPGQSPKVLIYKVSNRFSGVPDRFSGSGSGTDFTLKITRVEAEDLGVYYCFQGSHVPYTFGGGTKLEIKR
Consider B2, for which the Kd in the assay with MT1−MMPヒンジ領域ペプチドコンジュゲート was roughly 10 nM.

B3: 単鎖抗体MMP98−1 (scFv, V domains shown)
VH: EVQLQQSGPELKKPGETVKISCKASGYPVTKYGMNWVKQAPGKGLKWMGWINTYTGEPTYTDDFKGRFAFSLETSANTAYLQINNLKDEDTATYFCANSHGKYVEWFTYWGQGTTVTVSS
VL: DIELTQSPTTMAASPGEKITITCSASSSISSNYLHWYQQKPGFSPKLLIYRTSNLASGVPARFSGSGSGTSYSLTIGTMEAEDVATYYCQQGSSIPLTFGAGTKLELKR
B3 displayed a Kd with MT1−MMPヒンジ領域ペプチドコンジュゲート of roughly 10 nM.
In assay [1], PQPRTTSRPSVPDKPKNC (also called MT1−MMPペプチド; 抗原ペプチド) [MT1−MMPヒンジ領域ペプチド] yielded a concentration for half-maximal inhibition (IC50) of roughly 4.74 ng/mL.

The record behind these values is patent publication JP2012115243A (dated 2012).
